The IC50 is the midpoint of a concentration-inhibition curve. In general, EC50 refers to the concentration giving half of the maximal effect. In general, koff refers to the first-order rate constant of dissociation.

This note sets out measurements from patent US20230322953A1 (HARBOUR BIOMED SHANGHAI, published 2023).

Positions count from the first letter of the chain named. Names and notes keep the numbering of the source.

The labels stand for the following.
T1: human BCMA (human, UniProt Q02223 1-184)
T1 construct: whole, on cells; the cell line is named under assay; also called TNFRSF17; CD269
T1 sequence (looked up): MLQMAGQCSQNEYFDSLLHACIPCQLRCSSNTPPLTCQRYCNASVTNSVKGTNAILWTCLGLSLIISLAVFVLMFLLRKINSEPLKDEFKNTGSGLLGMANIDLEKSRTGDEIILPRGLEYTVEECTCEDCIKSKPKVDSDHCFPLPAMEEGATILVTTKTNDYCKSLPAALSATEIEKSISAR

T2: biotinylated human BCMA-Fc, Avitag recombinant protein (ACRO Biosystems, #BC7-H82F0) (human, UniProt Q02223 1-54, biotinylated)
T2 construct: extracellular domain; Bought protein; also called human BCMA protein; recombinant human BCMA-ECD-Fc; not shown: Fc of the bought fusion protein; Avitag
T2 sequence (looked up): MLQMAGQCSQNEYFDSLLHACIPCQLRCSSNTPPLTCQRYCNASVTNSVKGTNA

B1: PR001578 (bispecific antibody, human IgG1, kappa)
chain 1: EVQLVESGGGLIQPGGSLRLSCAVSGFTVSKNYMSWVRQAPGKGLEWVSVVYSGGSKTYADSVKGRFTISRDNSKNTLYLQMNSLRAEDTAVYYCARAVPHSPSSFDIWGQGTMVTVSSKLEPKSSDKTHTPPPPPRTDIQMTQSPSTLSASVGDRVTVTCRASQSIYIWLAWYQQKPGKAPNLLIYKASSLETGVPSRFSGSGSGTEFTLTISSLQPDDFATYYCQQYYGSSRTFGQGTKVEIKRTVAAPSVFIFPPSDEQLKSGTASVVCLLNNFYPREAKVQWKVDNALQSGNSQESVTEQDSKDSTYSLSSTLTLSKADYEKHKVYACEVTHQGLSSPVTKSFNRGEC
chain 2: not shown
notes: PD-L1×CTLA4, structure 9, Fc S239D, I332E
B2: PR001573 (bispecific antibody, human IgG1, kappa)
light: DIQMTQSPSTLSASVGDRVTVTCRASQSIYIWLAWYQQKPGKAPNLLIYKASSLETGVPSRFSGSGSGTEFTLTISSLQPDDFATYYCQQYYGSSRTFGQGTKVEIKRTVAAPSVFIFPPSDEQLKSGTASVVCLLNNFYPREAKVQWKVDNALQSGNSQESVTEQDSKDSTYSLSSTLTLSKADYEKHKVYACEVTHQGLSSPVTKSFNRGEC
chain: not shown
notes: PD-L1×CTLA4, structure 3
B3: PR000416, anti-PD-L1 91G3H5H3(D54E), hIgG1 (antibody)
heavy: not shown
light: B2 light
B4: PR001046 VH single-domain molecule (original molecule) (VHH)
VHH: EVQLVETGGGLIQPGGSLRLSCAASGFTVSDNYMTWVRQAPGKGLEWVSVIFSGGNTYYADSVKGRFTISRDNAKNTLYLQMNSLRAEDTALYYCARRNYDDTRGTDVFDIWGQGTMVTVSS
notes: not the HCAb form; not shown: Flag and His tags
B5: PR004563, PR001046 VH-derived single-domain variant 1046-R2-1A1 (VHH)
VHH: B4 VHH with S30Y, N56K, Y59V, D102Q
notes: Tested as VH single domain with Flag and His tags; not shown: Flag and His tags
B6: PR004562, PR001046 VH-derived single-domain variant 1046-R2-10H5 (VHH)
VHH: B4 VHH with N32S, N56K, A60S, D102Q, R104L
notes: as for B5
B7: PR004559, PR001046 VH-derived single-domain variant 1046-R1-12G7 (VHH)
VHH: B4 VHH with N56K
notes: Tested as VH single domain with Flag and His tags; also called PR001046-R1-12G7; not shown: Flag and His tags
B8: PR004561, PR001046 VH-derived single-domain variant 1046-R2-10H1 (VHH)
VHH: B4 VHH with N32S, D102Q, R104L
notes: as for B5
B9: PR004560, PR001046 VH-derived single-domain variant 1046-R2-10F1 (VHH)
VHH: B4 VHH with N32A, Y59V, A60S, D102Q
notes: as for B5

T3 sequence (P16410 36-223): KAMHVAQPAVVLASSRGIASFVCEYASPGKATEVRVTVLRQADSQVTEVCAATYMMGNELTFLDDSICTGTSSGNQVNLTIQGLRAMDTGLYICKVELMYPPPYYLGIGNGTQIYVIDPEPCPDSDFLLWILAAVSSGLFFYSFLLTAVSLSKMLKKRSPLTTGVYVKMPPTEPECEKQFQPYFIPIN

One assay addresses T3, human CTLA4 on cells (CHO-K1/hCTLA4; HEK293/hCTLA4; 293F-hCTLA4) (human, UniProt P16410 36-223).
T3 construct: whole, on cells
Description: competition FACS: biotinylated B7-1-Fc to CHO-K1/hCTLA4 cells (Test 2).
As to B1, the IC50 stood at 2.97 nM and the “Maximum inhibition rate (%)” value was 100%.

On to B2, for which the IC50 worked out at 6.22 nM and the “Maximum inhibition rate (%)” value is 99.2%.

In a further assay the target is T4, human PD-L1 on cells (CHO-K1/hPDL1; MDA-MB-231) (human, UniProt Q9NZQ7 19-290).
T4 construct: whole, on cells
T4 sequence (Q9NZQ7 19-290): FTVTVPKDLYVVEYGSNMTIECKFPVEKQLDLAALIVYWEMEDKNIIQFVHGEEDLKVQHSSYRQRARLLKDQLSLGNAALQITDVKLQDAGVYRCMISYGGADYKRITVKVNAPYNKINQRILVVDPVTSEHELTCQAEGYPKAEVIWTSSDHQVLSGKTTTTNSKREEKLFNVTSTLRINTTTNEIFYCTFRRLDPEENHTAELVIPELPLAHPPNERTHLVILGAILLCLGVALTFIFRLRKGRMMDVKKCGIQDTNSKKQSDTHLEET
Description: FACS, CHO-K1/hPDL1 cells (Experiment 2).
Regarding B1, a half-maximal effect (EC50) was put at 1.94 nM and the “Maximum MFI” value is 5660 MFI.

For the molecule B2, a half-maximal response (EC50) required 0.83 nM and the “Maximum MFI” value worked out at 8310 MFI.

Turning to B3, the EC50 came to 0.5 nM and the “Maximum MFI” value was 8380 MFI.

A further assay concerns the target T1, human BCMA. Description: flow cytometry, NCI-H929 cells, Flag-tagged VH single domain, anti-tag secondary antibody. (In general: A flow cytometer gives signals particle by particle.)
For the molecule B4, the “Maximum MFI” value is 764.

For the molecule B5, the concentration giving a half-maximal response (EC50) was 7.96 nM and the “Maximum MFI” value turned out to be 1260.

As to B6, the response was half-maximal at 1.24 nM (EC50) and the “Maximum MFI” value stood at 1560.

On to B7, for which the EC50 was determined as 22.4 nM and the “Maximum MFI” value came to 1190.

Regarding B8, a half-maximal response (EC50) required 4.38 nM and the “Maximum MFI” value was 1240.

Regarding B9, the EC50 came out at 3.75 nM and the “Maximum MFI” value amounted to 1300.

The next assay addresses T3, human CTLA4 on cells (CHO-K1/hCTLA4; …). Description: FACS, CHO-K1/hCTLA4 cells (Test 2).
For the molecule B1, a half-maximal response (EC50) required 4.65 nM and the “Maximum MFI” value was 401 MFI.

For B2, the EC50 came to 9.9 nM and the “Maximum MFI” value was found to be 781 MFI.

The next assay deals with T2, biotinylated human BCMA-Fc, Avitag …. Description: BLI (Octet Red96e), biotinylated BCMA-Fc on SA sensor, VH supernatant, 100 nM, single concentration. (Biolayer interferometry detects binding as a change in optical thickness at a sensor tip.)
For B4, the Response was 0.261 and the koff is 0.000696 s⁻¹.

In the case of B5, the Response amounted to 0.493 and the koff amounted to 0.000259 s⁻¹.

As for B6, the Response stood at 0.535 and the koff worked out at 0.000217 s⁻¹.

As to B7, the Response was 0.261 and the koff is 0.000379 s⁻¹.

As for B8, the Response was 0.269 and the koff was 0.0003 s⁻¹.

As for B9, the Response was 0.573 and the koff is 0.000301 s⁻¹.

A further assay deals with T4, human PD-L1 on cells (CHO-K1/hPDL1; …). Description: competition FACS: biotinylated PD-1 to CHO-K1/hPDL1 cells (Experiment 2).
On to B1, for which the half-maximal inhibitory concentration (IC50) is 1.69 nM and the “Maximum inhibition rate (%)” value came out at 81.4%.

Turning to B2, the IC50 was determined as 0.5 nM and the “Maximum inhibition rate (%)” value came out at 82.3%.

Regarding B3, the IC50 was 0.27 nM and the “Maximum inhibition rate (%)” value is 79.8%.

A further assay has as its target T2, biotinylated human BCMA-Fc, Avitag …. Description: BLI, dissociation rate relative to the original molecule PR001046 VH.
Turning to B4, the Kdis fold stood at 1.

Consider B5, for which the Kdis fold is 0.37.

For B6, the Kdis fold turned out to be 0.31.

B7: the Kdis fold came to 0.54.

On to B8, for which the Kdis fold amounted to 0.43.

Consider B9, for which the Kdis fold is 0.43.
